In publication PMC11286772, “Structural basis of antagonist selectivity in endothelin receptors” (Cell Discovery, 2024):
Residue numbers refer to the chain shown, from its start.

Assays:
[1] = molecular target: T1, ETA WT (Homo sapiens, UniProt P25101); experiment: Calcium mobilization assay, antagonist mode (ET-1 stimulated), CHO-K1 cells; format: cell-based
T1 construct: expressed in transfected cells; host or cells: CHO-K1
T1 sequence (P25101 21-427): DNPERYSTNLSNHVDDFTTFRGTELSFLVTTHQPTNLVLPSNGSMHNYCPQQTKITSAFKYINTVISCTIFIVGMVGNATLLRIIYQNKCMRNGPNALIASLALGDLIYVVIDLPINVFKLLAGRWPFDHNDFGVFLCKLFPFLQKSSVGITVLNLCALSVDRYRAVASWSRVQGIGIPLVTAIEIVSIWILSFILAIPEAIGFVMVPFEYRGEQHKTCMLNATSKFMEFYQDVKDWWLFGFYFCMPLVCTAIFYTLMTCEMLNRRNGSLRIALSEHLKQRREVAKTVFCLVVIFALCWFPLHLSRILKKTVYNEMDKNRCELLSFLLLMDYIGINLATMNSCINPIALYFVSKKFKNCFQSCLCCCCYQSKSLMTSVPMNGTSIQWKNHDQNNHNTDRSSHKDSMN
Procedure: CHO-K1 cells were cultured in Ham’s F-12K (Kaighn’s) Medium (Gibco-Thermo Fisher Scientific) supplemented with 10% (v/v) fetal bovine serum (FBS; Gibco-Thermo Fisher Scientific), and 100 U/mL Penicillin-Streptomycin (Gibco-Thermo Fisher Scientific) in a humidified incubator at 37 °C with 5% CO2. Cells were seeded in 6-cm dishes overnight; when the density reached 60%–80%, the cells were transferred to F12K Medium supplemented with 10% FBS and transfected with 1.5 μg DNA encoding the ETA WT or mutants or 3 μg DNA encoding the ETB WT or mutants using TransIT2020 (Mirus Biosciences). The next day, transfected cells were harvested from the plate using Versene buffer (Gibco-Thermo Fisher Scientific) and seeded into black-sided, clear-bottomed 384-well plates (Agilent) at a density of 1,5000 cells per well. After 20 h, the 1% dFBS medium was removed, and cells were loaded with 20 μL/well of 1× Calcium 6 dye (Molecular Devices) and incubated at 37 °C for 1 h in the dark. […] All data were analyzed using GraphPad Prism 8 and the data are from at least three independent replicate experiments. All plots are shown as means ± SEM. Data were determined using one-way ANOVA followed by Dunnett’s multiple test compared with WT. The top value was normalized to 100% and the bottom value was normalized to 0% for the final presentation. […]

[2] = molecular target: T2, ETA G233^ECL2A (Homo sapiens, UniProt P25101, G233A); experiment: Size exclusion chromatography analysis of Fab301 binding; conditions: ETA G233^ECL2A mutant vs WT
T2 construct: expressed in transfected cells; host or cells: CHO-K1
T2 sequence (P25101 21-427 G233A): T1 sequence (P25101 21-427) with G213A
Description: (§1) To pinpoint the exact ECL2 residues involved in binding, we performed an extensive alanine scanning mutagenesis. Our size exclusion chromatography analysis identified that the region spanning residues 230^ECL2–235^ECL2 in ETA, and in particularly, residues R232^ECL2 and G233^ECL2, are crucial for Fab301 binding. […] Moreover, the hydrophobic interactions at this interface are crucial for antibody binding, as confirmed by our calcium mobilization assay on Fab301 (Supplementary Fig. S9b). Within this model, E230^ECL2 establishes hydrogen bonds with the CDRL1 and CDRL2 regions of Fab301, whereas Y231^ECL2 and E234^ECL2, together with R232^ECL2, participate in a complex hydrogen bond network within the CDRH3 region of Fab301 (Fig. 6c).

[3] = molecular target: T3, ETA R232^ECL2A (Homo sapiens, UniProt P25101, R232A); experiment: as above; conditions: ETA R232^ECL2A mutant vs WT
T3 construct: expressed in transfected cells; host or cells: CHO-K1
T3 sequence (P25101 21-427 R232A): T1 sequence (P25101 21-427) with R212A
Description: as §1

B1: Fab301: ETA-specific antibody Fab fragment produced from Getagozumab (antibody, V domains shown)
VH: QVTLKESGPTLVKPTQTLTLTCTFSGFSLTTSGLGVAWIRQPPGKALEWLAHIWSDGDTRYYPALKNRLTITKDTSKNQVVLTMTNMDPVDTATYYCAHMKDDSLYFDNWGQGTLVTVSS
VL: EIVLTQSPDFQSVTPKEKVTITCRASQNIGTSIHWYQQKPDQYPKLLIKYASKSISGVPSRFSGSGSGTDFTLTINSLEAEDAATYYCQHSYSFPWTFGQGTKVEIK
Effect on ET-1-induced ETA signaling [1]: antagonistic effects | Fab301's binding to ETA [2]: near-complete loss | Fab301's binding to ETA [3]: near-complete loss
